Test results reported in patent US9395368B2, “Methods, agents and peptides for inducing an immune response to matrix metalloproteinase-2 expressing tumors” (New York University, priority 2010, dated 2016).

Tests used:
IFNβ production by DCs = test: IFNβ levels produced by poly(I:C)-matured DCs (ELISA); format: cell-based, human; details: poly(I:C)-matured DCs pre-exposed, 16 h
Protocol: Immature DCs were incubated with MMP-2 (0.5 μg/mL or 5 μg/mL) and poly(I:C)-matured 1 h later. IL-12 levels were measured 16 h later. (A) Results are represented as a percentage of IL-12p70 levels, measured by CBA, produced when DCs were incubated with poly(I:C) only (n=11). (B) For intracellular staining of IL-12p35 and IL-12p40 chains, Brefeldin A was added 4 h after poly(I:C) activation and cells were stained after an additional 12 h incubation. Numbers in the upper right quadrants are the percentages of each population for a representative donor (n=3). (C,D) Immature DCs were incubated with MMP-2 for 1 h (5 μg/mL) before poly(I:C) maturation. Intracellular staining of phosphorylated (Y701) STAT1 (P-STAT1) was performed 3 h later. […] IFNβ levels were measured by ELISA 16 h later. […] IFNAR1 protein expression was detected the next day by Western blot analysis using a rabbit monoclonal antibody. […]
Enzyme-linked immunosorbent assay Activation of T cell clones (10,000 cells/100 μL/well), polyclonal T cell populations (100,000 cells/100 μL/well), DCs (50,000 cells/100 μL/well) and basophils (10,000 cells/100 μL/well) was determined by ELISA. IFNγ (BioSource), TNFα (BioSource), IL-4 (BioSource), TSLP (Quantikine; R&D Systems), IFNβ (VeriKine; PBL interferon source) and MCP-3 (DuoSet; R&D Systems) contents in supernatants were measured according to the manufacturer's instructions.

[1] = tested on: CD40, CD80, CD83, CD86, HLA-DR and CCR7 on DCs; test: Expression of maturation markers by DCs; format: cell-based, human
Protocol: Antibodies. Allophycocyanin-conjugated antibody to CCR-7 (150503) was purchased from R&D Systems. Unconjugated (10 μg/mL for blocking experiments) or phycoerythrin-conjugated antibody to OX40L (11C3.1) was from Biolegend. Blocking antibody to IL-4 (8F12; 10 μg/mL) was from Acris. Antibodies to human Vβ chains covering 70% of the repertoire (10Test Beta Mark; Beckman Coulter) were used according to the manufacturer's instructions. Fluorescein isothiocyanate-conjugated antibody to IL-12p35/IL-12p70 (B-T21) and IFNAR1 (EP899Y) were from Abcam. Phycoerythrine-conjugated antibodies to IL-12p40/IL-12p70 (C8.6), IL-10 (B-T10), CD203c (FR3-16A11) were from Miltenyi Biotec. Blocking antibody to HLA-DQ (SPVL3; 20 μg/mL) was from NeoMarkers. […]
Dendritic cell preparation and activation. […] Immature DCs were harvested on day 5 and matured using poly(I:C) at 5 μg/mL/10^6 DCs (Amersham) Secretion of IL-12p70, TNFα, IL-1β, IL-6, IL-8 and IL-10 was assessed on both immature and mature DCs using the Human Inflammatory Cytokine Cytometric Bead Array (BD Pharmingen).
We next evaluated whether DCs could be involved in the polarization of MMP-2-specific CD4^+ T cells.

OX40L expression on DCs = OX40L expression on DCs by surface staining; format: cell-based, human; details: immature and poly(I:C)-matured DCs, n=9, 24 h
Protocol: Immature and poly(I:C)-matured DCs were incubated with active or HI MMP-2 (0.5 μg/mL or 5 μg/mL) for 24 h. MMP-2 enzymatic activity was controlled (FIG. 13C-D). OX40L expression was assessed by surface staining (A) Histogram plots are shown for representative donor HD1228. Isotype control is represented in tinted gray. (B) Mean fluorescent intensities are represented for all 9 donors tested. […] P values≦0.0167 (*) were considered statistically significant using a Bonferroni correction for 3 comparisons for each DC type. See also FIG. 12.
Dendritic cell preparation and activation. PBMCs were purified from healthy—(HD) or cord blood—(CB) donors and plated at 40×10^6 cells/10 mL/dish in complete IMDM with 5% PHS. Cells were allowed to adhere for 2 h at 37° C. Non-adherent cells were removed. The monocyte-enriched fraction was supplemented with 100 UI/mL rhGMCSF and 300 UI/mL rhIL-4 (R&D Systems) on days 0, 2 and 4. Immature DCs were harvested on day 5 and matured using poly(I:C) at 5 μg/mL/10^6 DCs (Amersham) Secretion of IL-12p70, TNFα, IL-1β, IL-6, IL-8 and IL-10 was assessed on both immature and mature DCs using the Human Inflammatory Cytokine Cytometric Bead Array (BD Pharmingen).

human basophils = test: Basophil activation by MMP-2 (IL-4, TSLP, CD203c); format: cell-based

B1: active MMP-2: Purified human MMP-2 (mixture of the proenzyme (50%) and the active form (50%)) purchased from Biomol (protein, listed as Homo sapiens)
chain: MEALMARGALTGPLRALCLLGCLLSHAAAAPSPIIKFPGDVAPKTDKELAVQYLNTFYGCPKESCNLFVLKDTLKKMQKFFGLPQTGDLDQNTIETMRKPRCGNPDVANYNFFPRKPKWDKNQITYRIIGYTPDLDPETVDDAFARAFQVWSDVTPLRFSRIHDGEADIMINFGRWEHGDGYPFDGKDGLLAHAFAPGTGVGGDSHFDDDELWTLGEGQVVRVKYGNADGEYCKFPFLFNGKEYNSCTDTGRSDGFLWCSTTYNFEKDGKYGFCPHEALFTMGGNAEGQPCKFPFRFQGTSYDSCTTEGRTDGYRWCGTTEDYDRDKKYGFCPETAMSTVGGNSEGAPCVFPFTFLGNKYESCTSAGRSDGKMWCATTANYDDDRKWGFCPDQGYSLFLVAAHEFGHAMGLEHSQDPGALMAPIYTYTKNFRLSQDDIKGIQELYGASPDIDLGTGPTPTLGPVTPEICKQDIVFDGIAQIRGEIFFFKDRFIWRTVTPRDKPMGPLLVATFWPELPEKIDAVYEAPQEEKAVFFAGNEYWIYSASTLERGYPKPLTSLGLPPDVQRVDAAFNWSKNKKTYIFAGDKFWRYNEVKKKMDPGFPKLIADAWNAIPDNLDAVVDLQGGGHSYFFKGAYYLKLENQSLKSVKFGSIKSDWLGC
- IFNβ levels (IFNβ production by DCs): decreased levels
- expression levels of maturation markers CD40, CD80, CD83, CD86, HLA-DR and CCR7 [1]: not significantly affected
- OX40L expression on DCs (OX40L expression on DCs): significantly increased
- production of IL-4 by basophils (human basophils; MMP-2 0.5 and 5 μg/mL): neither induced
- production of TSLP by basophils (human basophils; MMP-2 0.5 and 5 μg/mL, 16 h): neither induced
- expression of basophil activation marker CD203c (human basophils; PBMCs, 6 h): did not increase
